Experimental data: patent US20090324700A1, “METHODS AND COMPOSITIONS FOR THE INHIBITION OF CATHEPSINS” (priority 2003, published 2009)

Assays:
[1] = target: T1, cathepsin B (Homo sapiens, UniProt P07858); test: Protease specificity of Spi2A: cathepsin B; assay type: biochemical; settings: protease 20 nM, Spi2A 200 nM, 1 h at 37° C; FIG. 6B
T1 construct: purchased Calbiochem or Athens Research and Technology
Description: (§1) Protease specificity of Spi2A. RelA^−/− MEFs were transduced with retrovirus encoding Spi2A with a C-terminal 3×FLAG epitope tag and Spi2A-3×FLAG purified using a method described previously (Cooley et al., 1998). Briefly, cells (3×10^9) were lysed and Spi2A-3×FLAG (75 μg) purified by batch Q-Fast Flow ion-exchange chromatography (Pharmacia Biotech) after elution at 160-220 mM NaCl followed by anti-FLAG antibody columns, performed according to manufacturer's instructions (Sigma-Aldrich). Spi2A-3×FLAG was dialysed into PBS and stored as aliquots at −80° C. until needed.
(§2) Proteases were purchases from the manufacturers (Calbiochem or Athens Research and Technology) except granzymes A and B which were purified as described (Hanna et al., 1993) and cathespin V and K, which were purified as described (Bromme et al., 1999; Linnevers et al., 1997). Proteases (20 nM) were incubated in the appropriate assay buffer with Spi2A at 200 nM (at least 10-fold excess of inhibitor to maintain pseudo-first order conditions) for 1 h at 37° C. Control samples included only the enzyme, without the inhibitor. At the end of 1 h protease activity was assayed. […] Substrate hydrolysis was measured in a fluorescence microtiter plate reader (Spectramax Gemini XS, Molecular Devices). Percentage inhibition was calculated from the residual enzyme activity compared to no Spi2A controls. […]

[2] = tested on: CD8 cells and B lymphocytes in PBLs; test: Generation of bone marrow chimeras transduced with retrovirus: engraftment of CD8 cells and B lymphocytes in PBLs; assay type: in vivo, mouse; settings: 8 weeks after bone-marrow transfer, before infection; vs GFP mice
[3] = tested on: caspase-8, 9 and 3, and Bid; test: Death effector assays: caspase and Bid activation (western blots, enzyme assays), RelA^−/− MEFs; assay type: cell-based, mouse; settings: TNF-α 0.2 ng/ml, CHX 0.1 μg/ml; FIG. 5A, 5B
Description: Death effector assays. Death effector pathways were induced in […] MEFs by treatment TNF-α (0.2 ng/ml) and CHX (0.1 μg/ml). Assays for executioner proteases (caspases and cathepsin B) were performed on crude cytoplasmic extracts (Stegh et al., 2000). Briefly, MEFs (10^6) were lysed in 10 mM Tris-Cl, pH 7.5, 100 mM NaCl, 1 mM EDTA, 0.01% Triton X-100 (50 μl) for 30 min on ice then centrifuged at 15,000 g for 30 min at 4° C. and the supernatant recovered. Protein concentration was determined by Lowry assay (DC-protein assay kit, Biorad). […]
Colorimetric assays for capases were performed in reaction buffer (50 mM HEPES, pH 7.4, 100 mM NaCl, 10 mM DTT, 1 mM EDTA, 10% glycerol, 0.1% CHAPS) at 37° C. on crude cytoplasmic extracts using p-Nitoaniline (pNA)-labeled substrates (Calbiochem) specific for caspases 3 and 7 (Ac-DEVD-pNA), caspase 8 (Ac-IETD-pNA), caspase 9 (Ac-LEHD-pNA), each at 0.2 mM. Specific activity was determined by subtracting the apparent activity detected after 1 h pre-incubation of extract with the pan-caspase inhibitor Z-VAD.fmk at 50 μM (ICN Biomedicals Inc), then normalizing for the amount of protein. […] Specific activity was determined by subtracting the apparent activity detected after 30 min pre-incubation of extract at 37° C. with the cathespin B inhibitor CA-074 Me at 30 μM (Peptide Institute) then normalizing for the amount of protein.

[4] = target: T2, caspase 9 (Homo sapiens, UniProt P55211); test: Protease specificity of Spi2A: caspase 9; assay type: biochemical; settings: FIG. 6B
T2 construct: purchased Calbiochem or Athens Research and Technology
T2 sequence (P55211 1-315 limits assumed): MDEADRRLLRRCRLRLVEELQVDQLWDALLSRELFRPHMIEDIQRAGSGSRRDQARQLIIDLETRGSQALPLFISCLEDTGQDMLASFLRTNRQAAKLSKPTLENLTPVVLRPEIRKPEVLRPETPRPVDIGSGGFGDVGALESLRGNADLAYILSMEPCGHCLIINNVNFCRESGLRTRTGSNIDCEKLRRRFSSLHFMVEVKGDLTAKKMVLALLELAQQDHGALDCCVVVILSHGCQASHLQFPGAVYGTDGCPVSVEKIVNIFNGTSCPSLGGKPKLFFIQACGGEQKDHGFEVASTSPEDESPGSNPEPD
T2 sequence (P55211 331-416 limits assumed): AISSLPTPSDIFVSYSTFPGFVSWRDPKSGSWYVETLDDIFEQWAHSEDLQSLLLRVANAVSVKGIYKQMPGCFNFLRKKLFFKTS
Description: as §1, §2

[5] = target: T3, human cathepsin K (Homo sapiens, UniProt P43235); test: Protease specificity of Spi2A: cathepsin K; assay type: biochemical; settings: protease 20 nM, Spi2A 200 nM, 1 h at 37° C; FIG. 6B
T3 construct: made in house
T3 sequence (P43235 115-329): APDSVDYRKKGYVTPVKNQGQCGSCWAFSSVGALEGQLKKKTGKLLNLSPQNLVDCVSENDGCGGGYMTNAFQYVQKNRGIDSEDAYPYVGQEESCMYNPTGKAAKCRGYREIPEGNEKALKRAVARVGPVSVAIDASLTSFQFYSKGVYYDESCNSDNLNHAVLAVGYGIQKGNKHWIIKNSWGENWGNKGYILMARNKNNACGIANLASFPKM
Description: as §1, §2

B1: Spi2A: murine Spi2A polypeptide, SEQ ID NO:2; purified as C-terminal 3×FLAG protein or expressed from MIGR1 retrovirus in cells and bone-marrow chimeras (protein, listed as Mus musculus)
chain: MAGVSPAVFGCPDVTLGRNTAVREVQENVTSVDSLTLVSSNTDFAFSLYRKLVLKNPDENVVFSPFSICTALALLSLGAKSNTLKEILEGLKFNLTETPEPDIHQGFRYLLDLLSQPGNQVQISTGSALFIEKHLQILAEFKEKARALYQAEAFTADFQQPLKATKLINDYVSNHTQGKIKELISGLKESTLMVLVNYIYFKGKWKNPFDPNDTFKSEFYLDEKRSVIVSMMKTGYLTTPYFRDEELSCTVVELKYTGNASAMFILPDQGRMQQVEASLQPETLRKWKNSLKPRMIHELRLPKFSISTDYSLEHILPELGIREVFSTHADLSAITGTKDLRVSQVVHKAVLDVAEKGTEAAAATGMAGVGCCAVFDFLEIFFNRPFLMIISDTKAHIALFMAKVTNPERSTNFPNGEGASSQRLESKRLCFGDPLCLIGQ
modifications: C-terminal 3xFLAG tag
notes: purified as C-terminal 3×FLAG protein or expressed from MIGR1 retrovirus in cells and bone-marrow chimeras
[1]
  Inhibition of protease by Spi2A (percentage inhibition): extended to all of the lysosomal, papain-like proteases that were examined
[2]
  Percentage of CD8 cells in transduced (GFP-positive) PBLs: no difference
[3]
  Activation of apical and executioner caspases and Bid: suppressed
[4]
  Inhibition of protease by Spi2A (percentage inhibition): did not extend to any of the caspases tested
[5]
  Inhibition of protease by Spi2A (percentage inhibition): extended to all of the lysosomal, papain-like proteases that were examined
